From article PMC8857057

Molecular target: Pab1 monomer (Saccharomyces cerevisiae, UniProt P04147 1-577)
Assay: fluorescence anisotropy

Chain of Pab1 monomer (P04147 whole entry): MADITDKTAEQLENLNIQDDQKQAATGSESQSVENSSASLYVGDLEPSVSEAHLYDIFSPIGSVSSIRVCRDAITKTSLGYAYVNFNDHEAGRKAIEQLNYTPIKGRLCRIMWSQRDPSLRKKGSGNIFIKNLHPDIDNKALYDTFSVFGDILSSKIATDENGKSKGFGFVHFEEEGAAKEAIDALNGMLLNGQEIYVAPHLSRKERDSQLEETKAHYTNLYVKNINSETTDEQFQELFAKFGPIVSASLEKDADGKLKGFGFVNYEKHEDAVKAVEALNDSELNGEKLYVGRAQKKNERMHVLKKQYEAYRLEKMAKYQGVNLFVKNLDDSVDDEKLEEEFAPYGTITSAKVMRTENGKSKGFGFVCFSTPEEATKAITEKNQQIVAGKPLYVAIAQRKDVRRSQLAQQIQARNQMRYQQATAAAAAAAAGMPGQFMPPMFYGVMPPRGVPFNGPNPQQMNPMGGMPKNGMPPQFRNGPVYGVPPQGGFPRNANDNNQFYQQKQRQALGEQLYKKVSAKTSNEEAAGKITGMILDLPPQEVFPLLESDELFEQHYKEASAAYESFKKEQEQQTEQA

AAAAAAAAAAAAAAAAAAA (ssRNA) [A19 RNA]
binding result: binds
